B1: composite peptide KCF18 (peptide)
peptide: KCRKEMFKQKLPYSTVYF
notes: designed 18-residue composite peptide: KCRKEM from TNFR1, FKQKLP from IL-1R, YSTVYF from the IL-6 receptor; also called designed peptide KCF18; source: synthetic peptide (GeneMark, GMbiolab Co., Ltd., Taiwan; solid phase)

Key:
[1] = test system: TNF-α secretion in THP-1 cells; experiment: ELISA of IL-1β-induced TNF-α secretion in THP-1; type: cell-based, human; settings: 20 ng/ml IL-1β as stimulus
Description: In addition, the decline in cytokine–receptor interactions might suppress cytokine mRNA expression and cytokine production in endothelial cells and monocytes. Treatment with KCF18 suppressed TNF-α mRNA expression following cytokines TNF-α, IL-1β and IL-6 stimulation (Fig. 6). To assess the efficacy of KCF18, we performed the RT-qPCR in THP-1 and HMEC-1 cells and ELISA assay for detecting TNF-α secretion including a TNF-α blocking antibody (R&D systems, USA)[57]–[59] as an additional condition in their experiments. […] We further analyze whether the KCF18 could suppress IL-1β induced TNF-α or TNF-α induced IL-1β expressions by ELISA assay (Supporting Figure S7). […] Since TNF-α blocking antibody captures the TNF-α in the conditioned medium, it may interfere the detection of TNF-α by ELISA (Supporting Figure S7). In summary, indeed, KCF18 expresses the ability to reduce cytokines induced TNF-α mRNA and protein expression. […] We also assessed the ability of KCF18 to inhibit TNF-α-mediated p65 nuclear translocation and endothelial ICAM-1 expression (Supporting Figure S8). […]
Figure S7: Peptide KCF18 and TNF-a antagonist antibody affect the protein expression of cytokine s-induced TNF-α an d I L-1b in TH P-1 cells. TNF-α and IL-1b secretion levels induced by (A) IL-1b and (B) TNF-α in THP-1 were determined using ELISA assays. […]

[2] = target: T1, tumor necrosis factor-α (TNF-α), recombinant (UniProt P01375 77-233); experiment: SPR; Biacore T200; cytokine (about 5000 RU TNF-α, about 2000 RU IL-6) amine-coupled to a CM5 chip; peptide flowed over, single cycle kinetics, KCF18 at 2, 10, 25, 50 and 100 μM, 10 μl/min, 25 °C; steady-state binding isotherm fitted with a monovalent binding model; settings: both partners purified
T1 construct: TNF-α, bought recombinant protein; The bought product is probably the soluble mature human form (surmise); Amine-coupled to a CM5 chip for SPR; source: bought: GOLDBIO.COM, USA (catalog #1130-01)

[3] = target: T2, interleukin-6 (IL-6), recombinant (UniProt P05231 30-212); experiment: as above; settings: both partners purified
T2 construct: IL-6, bought recombinant protein; The simulations used human IL-6 (PDB 2IL6 with a modelled N-terminus); The bought product is probably mature human IL-6 (surmise); Amine-coupled to a CM5 chip for SPR; source: bought: GOLDBIO.COM, USA (catalog #1110-06)

T1 sequence (P01375 77-233): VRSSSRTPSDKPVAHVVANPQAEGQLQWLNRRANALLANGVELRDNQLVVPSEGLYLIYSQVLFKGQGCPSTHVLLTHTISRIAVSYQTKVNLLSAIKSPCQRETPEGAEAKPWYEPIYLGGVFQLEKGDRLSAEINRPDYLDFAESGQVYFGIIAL

| Molecule | induction of TNF-α secretion in THP-1 [1] [fold] | Kd [2] [µM] | Kd [3] [µM] |
| --- | --- | --- | --- |
| IL-1β: recombinant IL-1β (GOLDBIO), used as stimulus [reference compound] | 2 |  |  |
| B1 |  | 60.9 | 112 |
